Test results from US20060257904A1.

Biological target: human recombinant prion protein (hrPrP), amino acid residues 23-231 of human PrPC (human) (UniProt P04156)
Assay: cell-based or functional assay

With “α-2 macroglobulin (α2M), purified preparation” the protection of PrP from PK degradation was 4 µg, the protection of PrP from PK degradation in a mixture with tubulin was 16 µg and the protection of PrP from PK proteolysis (immunoblot with mAb 34C9) was 5 µg. It also gave a protection of rhuPrP from PK degradation, dose dependence of over 6 µg.
